How the values were obtained:
[1] = target: T1, PKC-ε (endogenous, IMR-32 lysate) (human, UniProt Q02156 1-737); assay: WB competition Protocol B, IMR-32 extract, vs anti-PKC-ε Ab; PKC-ε Band 1; 50 µg peptide
T1 construct: Band 1 and Band 2 (alternate splicing variants, not identified further) are kept under one molecule; the band is named in the assay field of each row; also called PKC-epsilon; PKC-ε Band 1
T1 sequence (looked up): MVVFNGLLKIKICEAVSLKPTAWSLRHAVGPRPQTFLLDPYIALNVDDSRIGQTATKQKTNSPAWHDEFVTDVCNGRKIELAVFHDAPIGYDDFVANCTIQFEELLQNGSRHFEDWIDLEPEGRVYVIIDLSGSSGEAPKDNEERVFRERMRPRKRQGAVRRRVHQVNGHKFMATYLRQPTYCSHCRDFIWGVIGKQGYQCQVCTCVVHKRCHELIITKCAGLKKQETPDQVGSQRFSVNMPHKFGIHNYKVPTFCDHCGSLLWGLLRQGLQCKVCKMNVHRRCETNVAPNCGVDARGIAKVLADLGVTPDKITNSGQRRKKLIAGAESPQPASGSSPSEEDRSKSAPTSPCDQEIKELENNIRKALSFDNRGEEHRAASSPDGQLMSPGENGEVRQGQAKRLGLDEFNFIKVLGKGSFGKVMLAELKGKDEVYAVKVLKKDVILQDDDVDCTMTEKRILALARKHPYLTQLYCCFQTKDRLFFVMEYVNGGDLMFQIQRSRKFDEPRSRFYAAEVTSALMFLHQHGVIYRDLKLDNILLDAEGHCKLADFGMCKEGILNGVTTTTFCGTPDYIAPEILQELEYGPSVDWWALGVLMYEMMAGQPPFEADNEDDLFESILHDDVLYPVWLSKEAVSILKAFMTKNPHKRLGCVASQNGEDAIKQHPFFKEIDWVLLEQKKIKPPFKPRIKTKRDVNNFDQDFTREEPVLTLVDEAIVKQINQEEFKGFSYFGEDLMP
Method: (§1) The ability of the peptides PRE 2 and PRE 3 (see Table 4) to interfere with the binding of a PKC-α-specific polyclonal antibody (Santa Cruz Biotechnology, Inc.) to PKC-α was determined using a modified version of the protocol outlined above in which the test peptide was added directly to the cell extract prior to electrophoresis at a concentration of either 5× or 15× the concentration of the protein applied to each well of the gel for the Western blots (20 μg).
(§2) Peptides PRE 2, PRE 3 and PRE 4 (see Table 4) were tested for their ability to interfere with the binding of isoform-specific polyclonal antibodies (Santa Cruz Biotechnology, Inc.) to […] using the general protocol described in Example 3. Two bands, representing alternate splicing variants of PKC-ε, were identified on the Western blot using this anti-PKC-ε antibody.

[2] = target: T2, PKC-βII (purified isoform) (Homo sapiens (Human), UniProt P05771 2-621); assay: competitive ELISA, coated purified PKC-βII, vs anti-PKC βII (SC-210); PRE 100 µM
T2 construct: also called PKC-beta II; PKC beta 2
T2 sequence (P05771 other isoform, or with tags, fused parts or gaps limits assumed): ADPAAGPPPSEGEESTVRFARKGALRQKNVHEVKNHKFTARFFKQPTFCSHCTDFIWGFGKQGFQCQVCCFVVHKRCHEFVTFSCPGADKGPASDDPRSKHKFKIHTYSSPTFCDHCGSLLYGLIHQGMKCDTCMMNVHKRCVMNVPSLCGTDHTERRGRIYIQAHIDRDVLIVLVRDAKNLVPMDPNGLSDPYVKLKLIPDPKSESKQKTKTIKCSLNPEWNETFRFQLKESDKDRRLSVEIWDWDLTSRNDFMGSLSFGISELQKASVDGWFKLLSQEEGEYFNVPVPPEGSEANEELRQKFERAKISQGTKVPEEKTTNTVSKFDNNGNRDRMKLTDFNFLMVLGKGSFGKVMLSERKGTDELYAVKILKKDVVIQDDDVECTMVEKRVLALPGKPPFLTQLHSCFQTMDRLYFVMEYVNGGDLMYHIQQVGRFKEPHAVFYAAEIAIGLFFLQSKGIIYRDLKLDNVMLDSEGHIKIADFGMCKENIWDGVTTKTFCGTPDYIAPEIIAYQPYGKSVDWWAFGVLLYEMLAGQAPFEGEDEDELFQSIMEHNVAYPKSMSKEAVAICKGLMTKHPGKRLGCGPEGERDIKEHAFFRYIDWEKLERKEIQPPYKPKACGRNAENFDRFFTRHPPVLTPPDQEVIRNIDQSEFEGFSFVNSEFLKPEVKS
Method: Greiner 96 well ELISA plates were coated with the appropriate PKC isoform diluted in PBSN (PBS with Calcium/Magnesium+0.05% Sodium azide w/w). 50 μL/well at 250 ng/mL was used. Control wells contained PBSN only. Plates were incubated overnight at 4° C.
The plates were washed 3 times with 200 μL of dH₂O per well, then 100 μL of blocking solution was added per well and the plate incubated for 1 h at 37° C. The washing steps with dH₂O were repeated and 50 μL of the appropriate PRE solution (PRE stock solution [20 mM in DMSO] diluted in PBSN) was added and the plate incubated for 1 h at room temperature.
50 μL of 1:1000 dilution of Alkaline Phosphatase (AP) conjugated antibody (anti-rabbit for all except zeta, which was anti-goat) was then added and the plate incubated for 1 h at room temperature. Washing with dH₂O was then repeated. Finally, 100 μL of pNPP solution in pNPP buffer (2 mM MgCl₂, 100 mM Sodium bicarbonate in water, pH 9.8) was added to all wells and incubated for 8 minutes for α, βI, βII ε, and ζ, or for 15-20 mins for δ (until sufficient coloration is observed). The reaction was stopped by addition of Stop solution (2N NaOH) and the absorbance at 405 nm was read on a Galaxy Plate reader.

[3] = target: T3, PKC-βI (purified isoform) (Homo sapiens (Human), UniProt P05771 2-671); assay: competitive ELISA, coated purified PKC-βI, vs anti-PKC βI (SC-209); PRE 100 µM
T3 construct: also called PKC-beta I; PKC beta 1
T3 sequence (P05771 2-671 limits assumed): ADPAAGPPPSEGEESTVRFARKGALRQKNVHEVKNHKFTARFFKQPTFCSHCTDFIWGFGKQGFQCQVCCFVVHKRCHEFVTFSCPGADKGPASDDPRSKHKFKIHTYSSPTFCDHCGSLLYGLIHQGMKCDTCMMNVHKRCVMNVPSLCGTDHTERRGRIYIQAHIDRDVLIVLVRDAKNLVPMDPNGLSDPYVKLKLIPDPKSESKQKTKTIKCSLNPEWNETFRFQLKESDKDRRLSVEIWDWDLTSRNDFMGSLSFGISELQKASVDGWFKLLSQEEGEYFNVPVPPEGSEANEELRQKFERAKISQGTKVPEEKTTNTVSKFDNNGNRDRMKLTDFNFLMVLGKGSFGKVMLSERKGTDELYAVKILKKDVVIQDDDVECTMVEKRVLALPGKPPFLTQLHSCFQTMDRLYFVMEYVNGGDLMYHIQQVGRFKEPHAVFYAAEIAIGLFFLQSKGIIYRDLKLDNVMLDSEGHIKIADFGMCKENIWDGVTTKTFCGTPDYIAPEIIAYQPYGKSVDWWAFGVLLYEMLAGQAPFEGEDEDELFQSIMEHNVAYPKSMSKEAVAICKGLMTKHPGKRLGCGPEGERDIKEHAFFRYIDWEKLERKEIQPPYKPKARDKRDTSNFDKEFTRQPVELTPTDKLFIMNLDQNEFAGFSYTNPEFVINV

[4] = target: T1, PKC-ε (endogenous, IMR-32 lysate); assay: WB competition Protocol B, IMR-32 extract, vs anti-PKC-ε Ab; PKC-ε Band 2; 20 µg peptide
Method: as §1, §2

PKC-δ (purified isoform) [5] = target: T4, PKC-δ (purified isoform); assay: competitive ELISA, coated purified PKC-δ, vs anti-PKC δ (SC-213); PRE 100 µM
T4 construct: also called PKC-delta
T4 sequence (Q05655 whole entry, stated change not applied, canonical isoform): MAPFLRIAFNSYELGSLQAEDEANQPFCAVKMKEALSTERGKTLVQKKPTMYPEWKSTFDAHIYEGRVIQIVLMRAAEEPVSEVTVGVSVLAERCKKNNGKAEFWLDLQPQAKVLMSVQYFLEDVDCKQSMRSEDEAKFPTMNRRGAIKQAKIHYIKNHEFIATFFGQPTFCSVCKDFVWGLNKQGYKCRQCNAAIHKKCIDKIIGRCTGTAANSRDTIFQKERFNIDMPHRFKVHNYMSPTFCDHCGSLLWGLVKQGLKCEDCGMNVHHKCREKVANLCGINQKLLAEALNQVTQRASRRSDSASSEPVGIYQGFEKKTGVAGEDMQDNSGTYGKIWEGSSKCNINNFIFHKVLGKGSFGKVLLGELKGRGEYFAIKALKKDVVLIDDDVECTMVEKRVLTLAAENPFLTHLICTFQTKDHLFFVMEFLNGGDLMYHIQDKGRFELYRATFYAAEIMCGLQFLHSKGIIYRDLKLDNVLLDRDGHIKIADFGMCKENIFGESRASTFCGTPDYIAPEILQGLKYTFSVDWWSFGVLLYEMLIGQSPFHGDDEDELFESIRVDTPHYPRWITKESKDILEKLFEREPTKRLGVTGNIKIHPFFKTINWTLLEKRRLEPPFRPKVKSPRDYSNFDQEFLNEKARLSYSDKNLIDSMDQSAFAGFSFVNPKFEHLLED
Method in brief: (§3)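 Plates coated overnight at 4 °C with purified PKC isoform at 250 ng/mL, blocked, then exposed 1 h at room temperature to PRE (from 20 mM DMSO stock) diluted in PBS with Ca/Mg. Bound isoform antibody detected with AP-conjugated secondary and pNPP (8 min; δ 15–20 min), absorbance 405 nm.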

PKC-α (purified isoform) [6] = target: T5, PKC-α (purified isoform) (Homo sapiens (Human), UniProt P17252 2-672); assay: competitive ELISA, coated purified PKC-α, vs anti-PKC α (SC-208); PRE 100 µM
T5 construct: also called purified PKC-alpha; commercially purified PKC-alpha
Method in brief: as §3

[7] = target: T1, PKC-ε (endogenous, IMR-32 lysate); assay: WB competition Protocol B, IMR-32 extract, vs anti-PKC-ε Ab; PKC-ε Band 2; 100 µg peptide
Method: as §1, §2

PKC-δ (purified isoform) [8] = target: T4, PKC-δ (purified isoform); assay: competitive ELISA, coated purified PKC-δ, vs anti-PKC δ (SC-213); PRE 200 µM
Method in brief: as §3

PKC-α (purified isoform) [9] = target: T5, PKC-α (purified isoform); assay: competitive ELISA, coated purified PKC-α, vs anti-PKC α (SC-208); PRE 50 µM
Method in brief: as §3

[10] = target: T1, PKC-ε (endogenous, IMR-32 lysate); assay: WB competition Protocol B, IMR-32 extract, vs anti-PKC-ε Ab; PKC-ε Band 1; 100 µg peptide
Method: as §1, §2

[11] = target: T3, PKC-βI (purified isoform); assay: competitive ELISA, coated purified PKC-βI, vs anti-PKC βI (SC-209); PRE 50 µM

B1: PRE 4 (peptide)
peptide: Ac-KDAQNLIGISI-NH2
notes: also called peptide PRE 4
Band Intensity [1]: 0
Inhibition (%) [1]: 100%
Relative Intensity (%) [1]: 0%
relative binding capacity (100-%n, DMSO subtracted) [2]: 13.5%
relative binding capacity (100-%n, DMSO subtracted) [3]: 15.7%
Band Intensity [4]: 153
Inhibition (%) [4]: 46.6%
Relative Intensity (%) [4]: 53.3%
relative binding capacity (100-%n, DMSO subtracted) (PKC-δ (purified isoform) [5]): 30.7%
relative binding capacity (100-%n, DMSO subtracted) (PKC-α (purified isoform) [6]): 21.9%
Band Intensity [7]: 0
Inhibition (%) [7]: 100%
Relative Intensity (%) [7]: 0%
relative binding capacity (100-%n, DMSO subtracted) (PKC-δ (purified isoform) [8]): 17.3%
relative binding capacity (100-%n, DMSO subtracted) (PKC-α (purified isoform) [9]): 6.46%
Band Intensity [10]: 0
Inhibition (%) [10]: 100%
Relative Intensity (%) [10]: 0%
relative binding capacity (100-%n, DMSO subtracted) [11]: 6.02%

Source: patent publication US20110039770A1 (PHARMAGAP, published 2011)
